# According to PMC9002095, “A SIRPαFc Fusion Protein Conjugated With the Collagen-Binding Domain for Targeted Immunotherapy of Non-Small Cell Lung Cancer” (Frontiers in Immunology, 2022):
# B1: TKKTLRT–SIRPαFc conjugate (Fc fusion)
# chain 1: EEELQVIQPDKSVLVAAGETATLRCTATSLIPVGPIQWFRGAGPGRELIYNQKEGHFPRVTTVSDLTKRNNMDFSIRIGNITPADAGTYYCVKFRKGSPDDVEFKSG
# chain 2: TKKTLRTC
# modifications: free amino groups joined through Sulfo-SMCC to the cysteine of the peptide TKKTLRTC; one or two peptides on one SIRPαFc (MALDI-TOF-MS); sites not told | sulfhydryl of the C-terminal cysteine joined to the maleimide group of Sulfo-SMCC
# B2: human SIRPαFc fusion protein (Fc fusion)
# chain: B1 chain 1
# Columns and labels:
# collagen type I = molecular target: T1, collagen type I (UniProt P02454 152-1207; P02466 86-1125); assay: ELISA; 96-well plate coated with 100 μg/ml collagen type I or 2% BSA at 4°C overnight, blocked with 2% BSA in PBS-T; SIRPαFc or CBD–SIRPαFc in five concentrations, 37°C, 2 h; detected with HRP anti-human IgG1 Fc antibody; KD by non-linear regression (one-site specific binding); conditions: both partners purified
# T1 construct: collagen type I, alpha 1 chain; collagen type I, alpha 2 chain; also called collagen I; source: bought: Corning
# human CD47 = molecular target: T2, human CD47 (human, UniProt Q08722 19-323); assay: SPR; Biacore T200; SIRPαFc or CBD–SIRPαFc caught on a CM5 chip activated by EDC-NHS; human CD47 in six concentrations flowed over; conditions: both partners purified
# T2 construct: CD47, human, in solution as the analyte of Biacore
# T2 sequence (Q08722 19-323): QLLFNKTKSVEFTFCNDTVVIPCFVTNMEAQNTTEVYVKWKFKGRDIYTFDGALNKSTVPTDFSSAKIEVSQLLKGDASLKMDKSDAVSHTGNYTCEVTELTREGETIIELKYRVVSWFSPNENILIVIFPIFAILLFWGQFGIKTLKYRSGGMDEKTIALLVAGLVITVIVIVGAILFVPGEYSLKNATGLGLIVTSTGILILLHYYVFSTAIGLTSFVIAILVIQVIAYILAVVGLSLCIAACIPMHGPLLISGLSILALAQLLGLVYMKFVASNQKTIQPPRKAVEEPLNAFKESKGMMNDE
# T1 sequence (P02454 152-1207, chain 1 of 2): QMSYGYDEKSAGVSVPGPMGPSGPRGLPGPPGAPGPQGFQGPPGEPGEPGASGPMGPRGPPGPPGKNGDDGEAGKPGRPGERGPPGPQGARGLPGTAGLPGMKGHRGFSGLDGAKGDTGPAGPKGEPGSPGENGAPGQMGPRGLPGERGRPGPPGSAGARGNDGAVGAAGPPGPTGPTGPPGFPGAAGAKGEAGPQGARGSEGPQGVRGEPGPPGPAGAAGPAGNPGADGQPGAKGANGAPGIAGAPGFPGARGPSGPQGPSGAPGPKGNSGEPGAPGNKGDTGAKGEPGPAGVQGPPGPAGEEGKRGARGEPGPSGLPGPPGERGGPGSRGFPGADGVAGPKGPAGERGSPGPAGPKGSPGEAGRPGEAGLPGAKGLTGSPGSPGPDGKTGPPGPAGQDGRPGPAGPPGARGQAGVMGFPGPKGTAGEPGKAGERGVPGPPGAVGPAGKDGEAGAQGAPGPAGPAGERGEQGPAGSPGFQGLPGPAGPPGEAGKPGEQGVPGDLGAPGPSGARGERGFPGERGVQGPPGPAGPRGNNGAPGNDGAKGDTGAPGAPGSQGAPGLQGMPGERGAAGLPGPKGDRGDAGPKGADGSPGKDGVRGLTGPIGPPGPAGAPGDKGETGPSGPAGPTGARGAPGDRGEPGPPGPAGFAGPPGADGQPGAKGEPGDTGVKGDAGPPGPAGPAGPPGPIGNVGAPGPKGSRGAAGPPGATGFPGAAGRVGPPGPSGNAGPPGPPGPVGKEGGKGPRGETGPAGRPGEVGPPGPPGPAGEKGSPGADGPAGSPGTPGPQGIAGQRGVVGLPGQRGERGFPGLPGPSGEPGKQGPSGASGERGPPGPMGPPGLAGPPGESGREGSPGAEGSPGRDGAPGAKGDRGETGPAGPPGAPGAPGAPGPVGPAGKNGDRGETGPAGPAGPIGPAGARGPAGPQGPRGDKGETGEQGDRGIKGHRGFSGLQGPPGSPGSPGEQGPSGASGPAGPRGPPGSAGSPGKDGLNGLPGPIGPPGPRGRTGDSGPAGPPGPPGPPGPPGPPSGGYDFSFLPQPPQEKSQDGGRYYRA
# T1 sequence (P02466 86-1125, chain 2 of 2): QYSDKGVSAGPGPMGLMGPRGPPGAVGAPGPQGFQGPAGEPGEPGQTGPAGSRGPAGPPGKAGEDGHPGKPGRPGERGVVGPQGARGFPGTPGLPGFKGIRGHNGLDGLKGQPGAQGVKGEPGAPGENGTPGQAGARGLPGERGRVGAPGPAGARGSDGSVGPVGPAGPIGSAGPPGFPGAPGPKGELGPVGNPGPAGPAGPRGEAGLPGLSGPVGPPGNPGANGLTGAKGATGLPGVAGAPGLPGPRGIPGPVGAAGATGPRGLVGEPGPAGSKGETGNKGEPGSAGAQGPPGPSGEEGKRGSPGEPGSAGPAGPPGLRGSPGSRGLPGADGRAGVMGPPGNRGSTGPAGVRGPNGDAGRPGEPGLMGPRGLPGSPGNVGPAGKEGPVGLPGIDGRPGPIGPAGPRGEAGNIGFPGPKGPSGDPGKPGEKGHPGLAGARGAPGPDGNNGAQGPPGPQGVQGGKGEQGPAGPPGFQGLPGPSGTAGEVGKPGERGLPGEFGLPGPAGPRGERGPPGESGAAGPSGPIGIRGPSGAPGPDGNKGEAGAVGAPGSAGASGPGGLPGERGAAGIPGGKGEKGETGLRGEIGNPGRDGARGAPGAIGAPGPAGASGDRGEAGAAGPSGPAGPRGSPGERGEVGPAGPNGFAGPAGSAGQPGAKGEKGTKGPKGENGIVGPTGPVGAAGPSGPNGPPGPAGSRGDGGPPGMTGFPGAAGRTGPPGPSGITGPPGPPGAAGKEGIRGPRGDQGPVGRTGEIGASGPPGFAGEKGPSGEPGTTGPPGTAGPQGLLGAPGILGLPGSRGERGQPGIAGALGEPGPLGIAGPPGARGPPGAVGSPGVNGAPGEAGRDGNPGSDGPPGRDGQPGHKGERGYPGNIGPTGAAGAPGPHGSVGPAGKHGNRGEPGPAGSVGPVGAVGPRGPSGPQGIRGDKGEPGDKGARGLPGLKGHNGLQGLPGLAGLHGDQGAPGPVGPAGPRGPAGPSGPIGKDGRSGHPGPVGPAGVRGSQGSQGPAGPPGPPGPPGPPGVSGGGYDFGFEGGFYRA
Binder,Kd (collagen type I) [nM],Kd (human CD47) [nM]
B1,180,1.44
B2,–,3.3
